Molecular target: Recombinant full-length human TDP-43 (human, UniProt Q13148 1-414)
Assay: cell-based or functional assay

Recombinant full-length human TDP-43, sequence (Q13148 whole entry): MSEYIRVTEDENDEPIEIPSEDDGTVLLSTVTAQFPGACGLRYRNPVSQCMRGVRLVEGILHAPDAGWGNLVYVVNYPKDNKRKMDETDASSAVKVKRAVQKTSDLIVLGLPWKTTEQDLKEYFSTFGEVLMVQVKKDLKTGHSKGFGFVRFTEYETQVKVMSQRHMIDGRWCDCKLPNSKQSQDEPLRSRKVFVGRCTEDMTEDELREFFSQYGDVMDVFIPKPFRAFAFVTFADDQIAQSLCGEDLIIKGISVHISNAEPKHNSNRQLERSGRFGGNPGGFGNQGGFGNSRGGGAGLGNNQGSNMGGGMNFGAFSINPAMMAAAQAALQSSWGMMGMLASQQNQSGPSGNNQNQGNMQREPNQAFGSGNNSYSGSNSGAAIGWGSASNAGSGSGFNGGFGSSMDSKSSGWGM

B1: His-tagged CHCHD10^S59L recombinant protein (natural protein, human, UniProt Q8WYQ3 17-142, looked up)
chain: AAPSAHPPAHPPPSAAAPAPAPSGQPGLMAQMATTAAGVAVGLAVGHVMGSALTGAFSGGSSEPSQPAVQQAPTPAAPQPLQMGPCAYEIRQFLDCSTTQSDLSLCEGFSEALKQCKYYHGLSSLP
area of high-height particles > 10 nm by atomic force microscopy after co-incubation of TDP-43 (1 μM) with CHCHD10^S59L (1 μM), 37 °C, 8 h, shaking, against TDP-43 alone: > 3 fold

Source: paper PMC9254494, “Modulation of synaptic plasticity, motor unit physiology, and TDP-43 pathology by CHCHD10” (Acta Neuropathologica Communications, 2022)
